Data reported in the supplement of paper PMC9112550, “Optimization of the antimicrobial peptide Bac7 by deep mutational scanning” (BMC Biology, 2022).

These sequences were tested on Escherichia coli TOP10 (assay: shrunken log2 fold change of peptide-encoding DNA abundance (4.5 h post-induction vs induction); higher = less antimicrobial activity (less host growth inhibition)). Conditions: time post-induction: 4.5 h; library: site-saturation at positions 5, 18, 19, 20.
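Further: peptides expressed intracellularly from a pBAD plasmid library in pooled LB shake-flask culture, induced with 0.3% L-arabinose, DNA abundance read by NGS, three biological replicates, DESeq2 with apeglm shrinkage.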

| Sequence | shrunken log2 fold change |
| --- | --- |
| RRIRHRPPRLPRPRPRPGLKPRP | 0.182 |
| RRIRPRPPRLPRPRPRPMIWPRP | -0.136 |
| RRIRERPPRLPRPRPRPQNSPRP | -0.505 |
| RRIRRRPPRLPRPRPRPMDEPRP | 0.0223 |
| RRIRHRPPRLPRPRPRPRCAPRP | 0.189 |
| RRIRTRPPRLPRPRPRPETRPRP | -0.0794 |
| RRIRTRPPRLPRPRPRPKFCPRP | 0.365 |
| RRIRDRPPRLPRPRPRPEEWPRP | 0.0446 |
| RRIRTRPPRLPRPRPRPQPYPRP | -0.322 |
| RRIRHRPPRLPRPRPRPRHEPRP | 0.099 |
| RRIRHRPPRLPRPRPRPLAKPRP | 0.107 |
| RRIRDRPPRLPRPRPRPGALPRP | 0.191 |
| RRIRIRPPRLPRPRPRPKPCPRP | -0.0965 |
| RRIRKRPPRLPRPRPRPFGYPRP | -0.0856 |
| RRIRARPPRLPRPRPRPMNNPRP | -0.186 |
| RRIRQRPPRLPRPRPRPTLFPRP | 0.12 |
| RRIRGRPPRLPRPRPRPHPAPRP | 0.853 |
| RRIRRRPPRLPRPRPRPHQRPRP | 0.14 |
| RRIRWRPPRLPRPRPRPRNMPRP | -0.0758 |
| RRIRIRPPRLPRPRPRPLRYPRP | -0.409 |
| RRIRERPPRLPRPRPRPSADPRP | -0.625 |
| RRIRCRPPRLPRPRPRPLKDPRP | -0.0917 |
| RRIRFRPPRLPRPRPRPRMLPRP | 3.84e-05 |
| RRIRVRPPRLPRPRPRPQDFPRP | 0.00129 |
| RRIRWRPPRLPRPRPRPFIRPRP | 0.0247 |

| Sequence | shrunken log2 fold change |
| --- | --- |
| RRIRHRPPRLPRPRPRPWMFPRP | -0.119 |
| RRIRKRPPRLPRPRPRPNQCPRP | 0.0387 |
| RRIRFRPPRLPRPRPRPKIVPRP | -0.207 |
| RRIRARPPRLPRPRPRPLQQPRP | 0.752 |
| RRIRMRPPRLPRPRPRPTLLPRP | 0.2 |
| RRIRERPPRLPRPRPRPQGIPRP | -0.044 |
| RRIRCRPPRLPRPRPRPPARPRP | 0.735 |
| RRIRNRPPRLPRPRPRPKWAPRP | -0.0431 |
| RRIRERPPRLPRPRPRPITNPRP | -0.409 |
| RRIRVRPPRLPRPRPRPFYSPRP | -0.3 |
| RRIRKRPPRLPRPRPRPCGFPRP | 0.279 |
| RRIRFRPPRLPRPRPRPGNGPRP | 0.228 |
| RRIRYRPPRLPRPRPRPNTWPRP | -0.204 |
| RRIRHRPPRLPRPRPRPRNFPRP | 0.134 |
| RRIRYRPPRLPRPRPRPQGPPRP | -0.0382 |
| RRIRTRPPRLPRPRPRPCISPRP | -0.503 |
| RRIRMRPPRLPRPRPRPMPEPRP | 0.627 |
| RRIRKRPPRLPRPRPRPGVEPRP | 1.09 |
| RRIRRRPPRLPRPRPRPMNFPRP | 0.154 |
| RRIRKRPPRLPRPRPRPPNIPRP | -1.03 |
| RRIRFRPPRLPRPRPRPIRVPRP | 0.0245 |
| RRIRMRPPRLPRPRPRPDFMPRP | -0.0119 |
| RRIRVRPPRLPRPRPRPCQWPRP | -0.0851 |
| RRIRRRPPRLPRPRPRPYLAPRP | -0.185 |
| RRIRCRPPRLPRPRPRPPLAPRP | 0.79 |

| Sequence | shrunken log2 fold change |
| --- | --- |
| RRIRHRPPRLPRPRPRPFLAPRP | -0.336 |
| RRIRKRPPRLPRPRPRPHQNPRP | 0.0256 |
| RRIRRRPPRLPRPRPRPIEQPRP | 0.0304 |
| RRIRIRPPRLPRPRPRPISAPRP | -0.0879 |
| RRIRWRPPRLPRPRPRPEKLPRP | 0.225 |
| RRIRERPPRLPRPRPRPFMQPRP | -0.178 |
| RRIRDRPPRLPRPRPRPKLEPRP | 0.434 |
| RRIRLRPPRLPRPRPRPYKHPRP | -0.619 |
| RRIRLRPPRLPRPRPRPAVCPRP | 0.0348 |
| RRIRERPPRLPRPRPRPMVYPRP | -0.119 |
| RRIRLRPPRLPRPRPRPTYIPRP | -0.304 |
| RRIRERPPRLPRPRPRPWDMPRP | -0.212 |
| RRIRTRPPRLPRPRPRPNLHPRP | -0.725 |
| RRIRRRPPRLPRPRPRPNSWPRP | -0.0571 |
| RRIRDRPPRLPRPRPRPNYFPRP | -0.0536 |
| RRIRCRPPRLPRPRPRPHCKPRP | -0.348 |
| RRIRCRPPRLPRPRPRPVSNPRP | 0.0201 |
| RRIRSRPPRLPRPRPRPLPEPRP | 0.278 |
| RRIRRRPPRLPRPRPRPNPEPRP | 0.302 |
| RRIRFRPPRLPRPRPRPWVFPRP | -0.00336 |
| RRIRLRPPRLPRPRPRPKMIPRP | -0.378 |
| RRIRRRPPRLPRPRPRPSYNPRP | -0.16 |
| RRIRVRPPRLPRPRPRPSWGPRP | 0.0232 |
| RRIRWRPPRLPRPRPRPFTSPRP | -0.0735 |
| RRIRNRPPRLPRPRPRPAYTPRP | -0.262 |

| Sequence | shrunken log2 fold change |
| --- | --- |
| RRIRGRPPRLPRPRPRPPWIPRP | 0.256 |
| RRIRPRPPRLPRPRPRPDRLPRP | 0.48 |
| RRIRIRPPRLPRPRPRPAEAPRP | 0.0803 |
| RRIRPRPPRLPRPRPRPIFGPRP | 0.0562 |
| RRIRARPPRLPRPRPRPMKSPRP | 0.186 |
| RRIRMRPPRLPRPRPRPTFAPRP | 0.573 |
| RRIRKRPPRLPRPRPRPIKFPRP | -0.131 |
| RRIRKRPPRLPRPRPRPCVDPRP | 0.268 |
| RRIRLRPPRLPRPRPRPLLCPRP | -0.0707 |
| RRIRFRPPRLPRPRPRPSCWPRP | 0.144 |
| RRIRHRPPRLPRPRPRPLSAPRP | 0.242 |
| RRIRERPPRLPRPRPRPLMWPRP | -0.101 |
| RRIRGRPPRLPRPRPRPWSGPRP | 0.0316 |
| RRIRQRPPRLPRPRPRPWRDPRP | 0.19 |
| RRIRCRPPRLPRPRPRPRTWPRP | 0.326 |
| RRIRTRPPRLPRPRPRPQKSPRP | -0.0823 |
| RRIRARPPRLPRPRPRPWFKPRP | -0.0366 |
| RRIRHRPPRLPRPRPRPLDKPRP | -0.0374 |
| RRIRPRPPRLPRPRPRPSFAPRP | 0.258 |
| RRIRRRPPRLPRPRPRPEMGPRP | 0.626 |
| RRIRWRPPRLPRPRPRPMHVPRP | 0.0255 |
| RRIRPRPPRLPRPRPRPLILPRP | -0.559 |
| RRIRARPPRLPRPRPRPDEFPRP | 0.331 |
| RRIRMRPPRLPRPRPRPSDIPRP | -0.192 |
| RRIRMRPPRLPRPRPRPLGYPRP | -0.264 |

| Sequence | shrunken log2 fold change |
| --- | --- |
| RRIRMRPPRLPRPRPRPPFLPRP | 0.305 |
| RRIRCRPPRLPRPRPRPMVCPRP | -0.143 |
| RRIRSRPPRLPRPRPRPDVMPRP | -0.0117 |
| RRIRCRPPRLPRPRPRPEPCPRP | -0.0257 |
| RRIRRRPPRLPRPRPRPWGFPRP | 0.315 |
| RRIRIRPPRLPRPRPRPEDEPRP | 0.0112 |
| RRIRMRPPRLPRPRPRPNKFPRP | 0.0721 |
| RRIRRRPPRLPRPRPRPQEIPRP | -0.149 |
| RRIRLRPPRLPRPRPRPVCPPRP | 0.149 |
| RRIRSRPPRLPRPRPRPFIEPRP | -0.285 |
| RRIRGRPPRLPRPRPRPSYKPRP | -0.197 |
| RRIRIRPPRLPRPRPRPHFWPRP | 0.0146 |
| RRIRARPPRLPRPRPRPMQTPRP | 0.114 |
| RRIRMRPPRLPRPRPRPICQPRP | 3.43 |
| RRIRLRPPRLPRPRPRPQVGPRP | -0.203 |
| RRIRWRPPRLPRPRPRPMEAPRP | 0.0987 |
| RRIRGRPPRLPRPRPRPMCMPRP | 0.509 |
| RRIRTRPPRLPRPRPRPQMQPRP | -0.0728 |
| RRIRKRPPRLPRPRPRPEEVPRP | 2.83 |
| RRIRNRPPRLPRPRPRPGQFPRP | -0.0134 |
| RRIRHRPPRLPRPRPRPRDIPRP | 0.115 |
| RRIRWRPPRLPRPRPRPVWEPRP | 0.912 |
| RRIRWRPPRLPRPRPRPMPGPRP | 0.0623 |
| RRIRLRPPRLPRPRPRPHAHPRP | -0.506 |
| RRIRWRPPRLPRPRPRPLNLPRP | -0.184 |

| Sequence | shrunken log2 fold change |
| --- | --- |
| RRIRKRPPRLPRPRPRPTTFPRP | 0.18 |
| RRIRARPPRLPRPRPRPSLMPRP | 0.0307 |
| RRIRPRPPRLPRPRPRPTEGPRP | -0.0468 |
| RRIRWRPPRLPRPRPRPRKQPRP | -0.0611 |
| RRIRVRPPRLPRPRPRPASQPRP | 0.128 |
| RRIRWRPPRLPRPRPRPNIVPRP | -0.112 |
| RRIRDRPPRLPRPRPRPMFYPRP | -0.305 |
| RRIRPRPPRLPRPRPRPAYGPRP | 0.144 |
| RRIRTRPPRLPRPRPRPHELPRP | -0.125 |
| RRIRNRPPRLPRPRPRPTPVPRP | 0.425 |
| RRIRVRPPRLPRPRPRPTCDPRP | -0.156 |
| RRIRYRPPRLPRPRPRPAAWPRP | 0.00758 |
| RRIRVRPPRLPRPRPRPEEDPRP | 0.0704 |
| RRIRFRPPRLPRPRPRPQVCPRP | -0.00807 |
| RRIRTRPPRLPRPRPRPGEEPRP | -0.00249 |
| RRIRERPPRLPRPRPRPAWLPRP | 0.471 |
| RRIRCRPPRLPRPRPRPHMEPRP | -0.194 |
| RRIRERPPRLPRPRPRPYKYPRP | 0.686 |
| RRIRDRPPRLPRPRPRPYGNPRP | -0.117 |
| RRIRWRPPRLPRPRPRPWAAPRP | 0.351 |
| RRIRLRPPRLPRPRPRPERMPRP | -0.0208 |
| RRIRYRPPRLPRPRPRPHCKPRP | -0.11 |
| RRIRGRPPRLPRPRPRPCLYPRP | 0.0217 |
| RRIRNRPPRLPRPRPRPISFPRP | -0.0972 |
| RRIRTRPPRLPRPRPRPVMDPRP | -0.478 |
